In FireProtDB (doi:10.1093/protein/12.10.841):

Conditions: Homo sapiens; pH 2.7; Thermal; DSC; glycine 0.05 M; reversible: yes; whole UniProt chain shown

B1: Lysozyme C wild type, P61626 (protein)
chain: MKALIVLGLVLLSVTVQGKVFERCELARTLKRLGMDGYRGISLANWMCLAKWESGYNTRATNYNAGDRSTDYGIFQINSRYWCNDGKTPGAVNACHLSCSALLQDNIADAVACAKRVVRDPQGIRAWVAWRNRCQNRDVRQYVQGCGV
- Tm: 64.9 °C
- heat capacity change of unfolding: 1.58 kcal/mol/K
- unfolding enthalpy (calorimetric): 477 kJ/mol
- unfolding enthalpy (van 't Hoff): 502 kJ/mol
